# Measured values as given in paper PMC10987460, “Impact of different models based on blood samples and images for bone marrow dosimetry after ^177Lu-labeled somatostatin-receptor therapy” (EJNMMI Physics, 2024).
# Assays:
# [1] = set-up: species or system patients; details: in vivo
# Procedure: A retrospective study was conducted on 59 patients treated in our institution for neuroendocrine tumors (NET) with ^177Lu-DOTATATE (Lutathera ®) between 2019 and 2021. In a standard study, patients received 4 cycles of ^177Lu-DOTATATE at the recommended activity of 7400 MBq during a 30-min intravenous perfusion. The interval between each cycle was eight weeks. The study was declared to the Health Data Hub (number: F20230102114415).
# Six to nine blood samples were collected at 0.5, 1, 2, 4, 8, 16, 24, 72 and 144 h post-injection in each patient. Blood was collected in the arm contralateral to that in which ^177Lu-DOTATATE was injected. Blood samples were centrifuged at 1000xg for 10 min at ambient temperature. Radioactivity was measured in 1 ml aliquots of plasma using a WIZARD^2™ 2480-0010 Gamma Counter (Perkin Elmer, MS, USA). A calibration curve with ^177Lu-DOTATATE was established to normalize the data obtained with the gamma counter. Radioactivity-time data were expressed in MBq/L after correction for radioactive decay between the time of the sampling and the measurement according to the equation: C(t)corr=C(t)measured×e^-Ln2/T1/2,177Lu(tmeasured-t) where C(t)corr is ^177Lu-Dotatate concentration at time t corrected for radioactive decay, C(t)measured is the ^177Lu-Dotatate concentration measured at time tmeasured, T1/2,^177Lu is the half-time disintegration of ^177Lu and T0 is the time of ^177Lu-Dotatate injection.
# For the blood-based method, the activity concentration was fitted by a mono-, bi- or tri- exponential curve to infinity to estimate the area under the curve (AUC) using an in-house Python program (Python 3.10, numpy and matplotlib libraries). […]
# To estimate the influence of the late timepoints for the blood-based method, we estimated the absorbed dose with only the timepoints before 24 h post-injection. For the image-based method, we kept only three timepoints by deleting the last one and compared the absorbed dose to the one calculated with all the timepoints.
# [2] = in vivo; cited from earlier work
# Source text: Table 1 Literature review of absorbed dose in bone marrow for ^177Lu-PRRT | column: Bone marrow absorbed dose (Gy/GBq) || Recently, the EANM dosimetry committee published its recommendations for the dosimetry of ^177Lu-labeled somatostatin-receptor and PSMA-targeting ligands. For ^177Lu-PRRT, the median value for the red marrow absorbed dose across all the studies is 50 mGy/GBq. The total-body time activity curve (TAC) is generally biphasic, as is the case for the blood TAC. The recommendation for dosimetry is to measure the activity concentration in the blood even if sequential planar or SPECT/CT whole-body imaging is also possible. || The median absorbed dose ranged from 15.3 to 63.9 mGy/GBq depending on the method used, which is coherent with the median literature value of 50 mGy/GBq (range 2 to 150 mGy/GBq) (see Table 1). With the blood-based method, the tri-exponential model gave a higher median absorbed dose than the bi-exponential model, which also gave a higher median dose than the mono-exponential model. The tri-exponential model was not always accurate and sometimes gave an infinite AUC, that is maybe due to the low number of points especially for the image-based method where we only have 4 points.
# [3] = human, in vivo; cited from earlier work
# Source text: Peptide receptor radionuclide therapy (PRRT) with ^177Lu-DOTATATE or ^177Lu-oxodotreotide, a somatostatin analog radiolabeled with ^177Lu, is a recognized therapeutic option for metastatic or symptomatic patients with midgut WHO grade I-II neuroendocrine tumors. […] The standard treatment consists in four intravenous injections of 7.4 GBq of ^177Lu-DOTATATE administered every 8 weeks. This the ...
smiles,measurement,setting,value
"C[C@@H](O)[C@H](NC(=O)[C@@H]1CSSC[C@H](NC(=O)[C@@H](Cc2ccccc2)NC(=O)CN2CCN(CC(=O)O)CCN(CC(=O)O)CCN(CC(=O)O)CC2)C(=O)N[C@@H](Cc2ccc(O)cc2)C(=O)N[C@H](Cc2c[nH]c3ccccc23)C(=O)N[C@@H](CCCCN)C(=O)N[C@@H]([C@@H](C)O)C(=O)N1)C(=O)O [^177Lu-DOTATATE, metal not drawn]","Effective half-life, first phase",[1],12 to 348 min
same,"Effective half-life, second phase",[1],96 to 2080 min
same,"Median absorbed dose (bone marrow), range over methods and models",[1],15.3-63.9 mGy/GBq
same,Median value for the red marrow absorbed dose across all the studies,[2],50 mGy/GBq
same,Range of literature red marrow absorbed dose,[2],2-150 mGy/GBq
same,Grade 3 or 4 lymphopenia,[3],9%
same,Grade 3 or 4 thrombopenia,[3],2%
same,"Leukemia, treated patients",[3],about 1%
same,"Myelodysplastic syndrome (MDS), treated patients",[3],about 2%
